Results from publication PMC5474359.

Target: T1, CD-86, P42081
T1 chain: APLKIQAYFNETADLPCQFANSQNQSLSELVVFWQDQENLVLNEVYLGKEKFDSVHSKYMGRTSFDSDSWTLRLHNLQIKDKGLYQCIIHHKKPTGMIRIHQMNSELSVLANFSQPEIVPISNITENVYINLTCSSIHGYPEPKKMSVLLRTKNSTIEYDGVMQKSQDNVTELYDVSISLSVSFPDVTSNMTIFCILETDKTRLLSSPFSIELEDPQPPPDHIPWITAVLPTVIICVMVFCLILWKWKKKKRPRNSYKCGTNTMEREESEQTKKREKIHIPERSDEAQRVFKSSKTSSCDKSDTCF
Assay: fluorescence correlation spectroscopy with photon counting histogram
Conditions: remark: other sources report otherwise

PCH molecular brightness: 9360 CPSM
B1: CD-86, P42081 24-329 (receptor)
chain: APLKIQAYFNETADLPCQFANSQNQSLSELVVFWQDQENLVLNEVYLGKEKFDSVHSKYMGRTSFDSDSWTLRLHNLQIKDKGLYQCIIHHKKPTGMIRIHQMNSELSVLANFSQPEIVPISNITENVYINLTCSSIHGYPEPKKMSVLLRTKNSTIEYDGVMQKSQDNVTELYDVSISLSVSFPDVTSNMTIFCILETDKTRLLSSPFSIELEDPQPPPDHIPWITAVLPTVIICVMVFCLILWKWKKKKRPRNSYKCGTNTMEREESEQTKKREKIHIPERSDEAQRVFKSSKTSSCDKSDTCF
